The results in this text go back to patent US4843003.

This data set relates to Exonuclease III (Escherichia coli). In words: cleavage_in_vitro. Particulars: 37 C, 66 mM Tris-HCl pH 8, 0.66 mM MgCl2.

For the setting “digested from 5' protruding end, not from SstI 3' protruding end, 14.4 kb removed per end in 32 min”, “Bacteriophage lambda DNA SstI terminal fragments (24.8 kb and 22.6 kb), 5' 12-nt protruding end” displayed an activity (nucleotides/min) of 450.
For “M13 mp18 with 4.5 kb EcoRI Drosophila Gart insert, SalI/SphI cut”, the activity (nucleotides/min) (after 25 s delay, one-way digestion, no sequence preference seen) came to 450.
